Series [1] deals with T1, TbTRF-lMyb280-382 R298E R298E (Trypanosoma brucei) (UniProt Q4VHG6).
T1 sequence: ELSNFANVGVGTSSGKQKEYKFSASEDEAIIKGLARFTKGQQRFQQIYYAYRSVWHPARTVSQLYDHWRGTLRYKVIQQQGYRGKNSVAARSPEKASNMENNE
Put plainly: EMSA.

For series [2], the target named is T2, TbTRF-lMyb280-382 (Trypanosoma brucei) (UniProt Q4VHG6).
T2 sequence: T1 sequence with E19R
Put plainly: EMSA.

Numbering of substitutions follows the chain as printed.

As a reminder, the Kd is the constant that tells how readily two partners part at equilibrium. A higher Kd goes with lower affinity. With “UUAGGGUUAGGGUUAGGGUUAGGGUUAGGGUUAGGGUUAGGGUUAGGGUUAGGGUUAGGGUUAGGGUUAGGG [ss(UUAGGG)12]”, the Kd turned out to be 5 nM in series [1] and 268 nM in series [2].
In the same order, the values of “CCCUAACCCUAACCCUAACCCUAACCCUAACCCUAACCCUAACCCUAACCCUAACCCUAACCCUAACCCUAA [ss(CCCUAA)12]” are 36 nM and 17200 nM.

The values above are taken from paper PMC8191777.
